Measured values taken from PMC3830201, “Swiprosin-1 modulates actin dynamics by regulating the F-actin accessibility to cofilin” (Cellular and Molecular Life Sciences: CMLS, 2013).

B1: GST-Swiprosin-1 fusion protein (wild type) (natural protein)
chain: MATDELATKLSRRLQMEGEGGGETPEQPGLNGAAAAAAGAPDEAAEALGSADCELSAKLLRRADLNQGIGEPQSPSRRVFNPYTEFKEFSRKQIKDMEKMFKQYDAGRDGFIDLMELKLMMEKLGAPQTHLGLKNMIKEVDEDFDSKLSFREFLLIFRKAAAGELQEDSGLCVLARLSEIDVSSEGVKGAKSFFEAKVQAINVSSRFEEEIKAEQEERKKQAEEMKQRKAAFKELQSTFK
notes: Swiprosin-1 (EF hand domain containing 2, EFHD2), human (hSwiprosin-1); Cloned into pGEX4T1; also called GST-Swiprosin-1-WT; GST-Sw-WT; source: purified GST fusion protein (pGEX4T1); also used on agarose beads
B2: GST-Swiprosin-1 S183A (phosphorylation-deficient mutant) (natural protein)
chain: MATDELATKLSRRLQMEGEGGGETPEQPGLNGAAAAAAGAPDEAAEALGSADCELSAKLLRRADLNQGIGEPQSPSRRVFNPYTEFKEFSRKQIKDMEKMFKQYDAGRDGFIDLMELKLMMEKLGAPQTHLGLKNMIKEVDEDFDSKLSFREFLLIFRKAAAGELQEDSGLCVLARLSEIDVASEGVKGAKSFFEAKVQAINVSSRFEEEIKAEQEERKKQAEEMKQRKAAFKELQSTFK
notes: Swiprosin-1 (EFHD2), human (hSwiprosin-1); also called GST-Sw-S183A; source: purified GST fusion protein (pGEX4T1)
B3: GST-Swiprosin-1 S183E (phosphorylation-mimicking mutant) (natural protein)
chain: MATDELATKLSRRLQMEGEGGGETPEQPGLNGAAAAAAGAPDEAAEALGSADCELSAKLLRRADLNQGIGEPQSPSRRVFNPYTEFKEFSRKQIKDMEKMFKQYDAGRDGFIDLMELKLMMEKLGAPQTHLGLKNMIKEVDEDFDSKLSFREFLLIFRKAAAGELQEDSGLCVLARLSEIDVESEGVKGAKSFFEAKVQAINVSSRFEEEIKAEQEERKKQAEEMKQRKAAFKELQSTFK
notes: Swiprosin-1 (EFHD2), human (hSwiprosin-1); also called GST-Sw-S183E; source: purified GST fusion protein (pGEX4T1)

What follows are binders tested against F-actin assembled from rabbit skeletal muscle G-actin (rabbit, UniProt P68135 1-377) (assay: co-sedimentation; purified GST or GST-Swiprosin-1 proteins incubated with 5 uM G-actin in actin polymerization buffer (MgCl2, KCl, ATP) at 25 C to assemble filaments; ultracentrifuged at 45,000 rpm; supernatant and pellet by SDS-PAGE, Coomassie). Details: both partners purified.

Binding result, binds:
B1
B2
B3
